Positions count from the first letter of the chain named. Names may count otherwise. Where two headings read alike, the source gives them in different places.
What was measured:
[1] = biological target: T1, recombinant fusion protein comprising human IL-2R beta subunit extracellular domain and mouse IgG2a Fc (human, UniProt P14784 27-240); assay: ELISA; polyvinyl chloride plates coated with IL-2R beta ECD/mouse IgG2a Fc at 10 µg/mL in PBS; Fc-fusion proteins diluted in M-PBS, 1 h at RT; detected with anti-human IgG-HRP; details: both partners purified
T1 construct: human IL-2 receptor beta subunit (CD122), extracellular domain; also called IL-2R beta/mFc; IL-2R beta ECD/mouse IgG2a Fc
T1 sequence (looked up): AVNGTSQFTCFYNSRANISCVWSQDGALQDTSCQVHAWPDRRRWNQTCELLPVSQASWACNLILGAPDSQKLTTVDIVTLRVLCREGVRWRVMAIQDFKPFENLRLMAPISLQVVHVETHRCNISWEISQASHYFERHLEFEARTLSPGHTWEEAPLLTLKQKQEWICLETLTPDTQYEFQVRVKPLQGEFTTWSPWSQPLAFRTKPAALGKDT

[2] = biological target: T1, recombinant fusion protein comprising …; assay: SPR; Biacore T200; IL-2R beta ECD/mouse IgG2a Fc amine-coupled to a CM5 chip; Fc-fusion proteins 1-800 nmol/L injected at 15 µL/min in PBS with 0.05% Tween 20; single-cycle mode; global fit to the 1:1 model; details: both partners purified
[3] = biological target: T2, human IL-2 receptor beta chain extracellular domain (ECD) (human, UniProt P14784 27-240); assay: ELISA; polyvinyl chloride plates coated with human beta chain ECD; purified phage preparations of individual clones; bound phages detected with anti-M13-HRP; relative reactivity = signal on beta chain / signal on 9E10 (anti-c-myc); details: both partners purified
T2 construct: human IL-2 receptor beta subunit (CD122), recombinant extracellular domain; Coated on immunotubes for panning and on plates for phage ELISA; also called hIL-2R beta subunit ECD; beta chain ECD; source: bought: R&D Systems
T2 sequence (looked up): T1 sequence (looked up)

[4] = biological target: T3, 80VPPEDLIA87 + I92L(K35E)/Fc (human, UniProt P60568 21-153, K35E | L80V (from the name 80VPPEDLIA87) | R81P (from the name 80VPPEDLIA87) | …); assay: SPR
IL-2(K35E)/Fc [5] = biological target: T4, IL-2(K35E)/Fc (human, UniProt P60568 21-153, K35E); assay: SPR
[6] = biological target: T5, 80VPPEDLIE87 + I92L(K35E)/Fc (human, UniProt P60568 21-153, K35E | L80V (from the name 80VPPEDLIE87) | R81P (from the name 80VPPEDLIE87) | …); assay: SPR
[7] = biological target: T6, 80FDPADVVE87 + I92L(K35E)/Fc (human, UniProt P60568 21-153, K35E | L80F | R81D | R83 was replaced by either Ala or Glu (here Ala) | L85V | …); assay: SPR
[8] = biological target: T7, 80FDPEDVVE87 + I92L(K35E)/Fc (human, UniProt P60568 21-153, K35E | L80F | R81D | R83 was replaced by either Ala or Glu (here Glu) | L85V | …); assay: SPR
H9(K35E)/Fc [9] = biological target: T8, H9(K35E)/Fc (human, UniProt P60568 21-153, K35E | L80F | R81D | L85V | I86V | I92F); assay: SPR
[10] = biological target: T9, 80FDPHDVVE87 + I92L + V93L(K35E)/Fc (human, UniProt P60568 21-153, K35E | L80F | R81D | R83H (from the name 80FDPHDVVE87) | L85V | I86V | S87E | …); assay: SPR
[11] = biological target: T10, H9(K35E)/Fc in which F92 was replaced by the phage-selected Leu (human, UniProt P60568 21-153, K35E | L80F | R81D | L85V | I86V | I92L); assay: SPR
IL-2(K35E)/Fc [12] = biological target: T4, IL-2(K35E)/Fc; assay: SPR; remark: listed apart in the source
[13] = biological target: T11, fusion protein containing I92L-hIL-2 (K35E, human IgG1 Fc) (human, UniProt P60568 21-153, K35E | I92L); assay: SPR
[14] = biological target: T12, H9(K35E)/Fc in which F92 was replaced by the original Ile (human, UniProt P60568 21-153, K35E | L80F | R81D | L85V | I86V); assay: SPR
H9(K35E)/Fc [15] = biological target: T8, H9(K35E)/Fc; assay: SPR; remark: listed apart in the source
[16] = biological target: T3, 80VPPEDLIA87 + I92L(K35E)/Fc; assay: SPR; remark: listed apart in the source
IL-2(K35E)/Fc [17] = biological target: T4, IL-2(K35E)/Fc; assay: SPR; remark: listed apart in the source
[18] = biological target: T5, 80VPPEDLIE87 + I92L(K35E)/Fc; assay: SPR; remark: listed apart in the source
[19] = biological target: T6, 80FDPADVVE87 + I92L(K35E)/Fc; assay: SPR; remark: listed apart in the source
[20] = biological target: T7, 80FDPEDVVE87 + I92L(K35E)/Fc; assay: SPR; remark: listed apart in the source
H9(K35E)/Fc [21] = biological target: T8, H9(K35E)/Fc; assay: SPR; remark: listed apart in the source
[22] = biological target: T9, 80FDPHDVVE87 + I92L + V93L(K35E)/Fc; assay: SPR; remark: listed apart in the source
[23] = biological target: T10, H9(K35E)/Fc in which F92 was replaced …; assay: SPR; remark: listed apart in the source
IL-2(K35E)/Fc [24] = biological target: T4, IL-2(K35E)/Fc; assay: SPR; remark: listed apart in the source
[25] = biological target: T11, fusion protein containing I92L-hIL-2 …; assay: SPR; remark: listed apart in the source
[26] = biological target: T12, H9(K35E)/Fc in which F92 was replaced …; assay: SPR; remark: listed apart in the source
H9(K35E)/Fc [27] = biological target: T8, H9(K35E)/Fc; assay: SPR; remark: listed apart in the source

B1: 81DPQDLIE87 + I92L(K35E)/Fc (Fc fusion, human, UniProt P60568 21-153, looked up)
chain: APTSSSTKKTQLQLEHLLLDLQMILNGINNYKNPELTRMLTFKFYMPKKATELKHLQCLEEELKPLEEVLNLAQSKNFHLDPQDLIENINVLVLELKGSETTFMCEYADETATIVEFLNRWITFCQSIISTLT
notes: human interleukin-2 whose segment 81-87 reads DPQDLIE, with I92L; the first two aa (Ala-Pro) are present in the Fc constructs; source: HEK-293T adapted to suspension, transient transfection, purified from supernatant (protein A)
[1]
  binding result: binds

B2: 81DPQDLIE87(K35E)/Fc (Fc fusion, human, UniProt P60568 21-153, looked up)
chain: B1 chain with L92I
notes: human interleukin-2 whose segment 81-87 reads DPQDLIE; the first two aa (Ala-Pro) are present in the Fc constructs; source: HEK-293T adapted to suspension, transient transfection, purified from supernatant (protein A)
[1]
  binding result: binds

B3: 80FDPEDVVE87 + I92L(K35E)/Fc (Fc fusion, human, UniProt P60568 21-153, looked up)
chain: B1 chain with L80F, Q83E, L85V, I86V
notes: the first two aa (Ala-Pro) are present in the Fc constructs; source: HEK-293T adapted to suspension, transient transfection, purified from supernatant (protein A)
[1]
  binding result: binds

B4: 80FDPADVVE87 + I92L(K35E)/Fc (Fc fusion, human, UniProt P60568 21-153, looked up)
chain: B1 chain with L80F, Q83A, L85V, I86V
notes: as for B3
[1]
  binding result: binds

B5: 80VPPEDLIE87 + I92L(K35E)/Fc (Fc fusion, human, UniProt P60568 21-153, looked up)
chain: B1 chain with L80V, D81P, Q83E
notes: the first two aa (Ala-Pro) are present in the Fc constructs; also called variant 2B further optimized by incorporating S87E; source: HEK-293T adapted to suspension, transient transfection, purified from supernatant (protein A)
[1]
  binding result: binds

B6: H9(K35E)/Fc in which F92 was replaced by the phage-selected Leu (Fc fusion, human, UniProt P60568 21-153, looked up)
chain: B1 chain with L80F, Q83R, L85V, I86V, E87S
notes: human interleukin-2 with the H9 mutations except that residue 92 is Leu; the first two aa (Ala-Pro) are present in the Fc constructs; also called F92L-containing protein; source: HEK-293T adapted to suspension, transient transfection, purified from supernatant (protein A)
[1]
  binding result: binds

B7: 81VPEDLIE87 + I92L(K35E)/Fc (Fc fusion, human, UniProt P60568 21-153, looked up)
chain: B1 chain with D81V, Q83E
notes: human interleukin-2 whose segment 81-87 reads VPEDLIE, with I92L; the first two aa (Ala-Pro) are present in the Fc constructs; source: HEK-293T adapted to suspension, transient transfection, purified from supernatant (protein A)
[1]
  binding result: binds

B8: H9(K35E)/Fc in which F92 was replaced by the original Ile (Fc fusion, human, UniProt P60568 21-153, looked up)
chain: B1 chain with L80F, Q83R, L85V, I86V, E87S, L92I
notes: human interleukin-2 with the H9 mutations except that residue 92 is the original Ile; the first two aa (Ala-Pro) are present in the Fc constructs; also called F92I-containing protein; source: HEK-293T adapted to suspension, transient transfection, purified from supernatant (protein A)
[1]
  binding result: binds

B9: H9(K35E)/Fc (Fc fusion, human, UniProt P60568 21-153, looked up)
chain: B1 chain with L80F, Q83R, L85V, I86V, E87S, L92F
notes: human interleukin-2 with the mutations of H9 superkine and K35E; the first two aa (Ala-Pro) are present in the Fc constructs; Heavily aggregated in SEC; also called H9(K35)/Fc; fusion protein based on H9 superkine; source: HEK-293T adapted to suspension, transient transfection, purified from supernatant (protein A)
[2]
  fold decrease of KD against IL-2(K35E)/Fc: ~25 fold
  koff: ~0.0003 s⁻¹

B10: 80FDPHDVVE87 + I92L + V93L(K35E)/Fc (Fc fusion, human, UniProt P60568 21-153, looked up)
chain: B1 chain with L80F, Q83H, L85V, I86V, V93L
notes: the first two aa (Ala-Pro) are present in the Fc constructs; also called fusion protein derived from phage clone 1A; source: HEK-293T adapted to suspension, transient transfection, purified from supernatant (protein A)
[1]
  binding result: binds

B11: 81VPEDLIE87(K35E)/Fc (Fc fusion, human, UniProt P60568 21-153, looked up)
chain: B1 chain with D81V, Q83E, L92I
notes: human interleukin-2 whose segment 81-87 reads VPEDLIE; the first two aa (Ala-Pro) are present in the Fc constructs; source: HEK-293T adapted to suspension, transient transfection, purified from supernatant (protein A)
[1]
  binding result: binds

B12: 80VPPEDLIA87 + I92L(K35E)/Fc (Fc fusion, human, UniProt P60568 21-153, looked up)
chain: B1 chain with L80V, D81P, Q83E, E87A
notes: as for B3
[1]
  binding result: binds

B13: phage-displayed hIL-2 variant 2B (S2 library) (ligand, human, UniProt P60568 23-153, looked up)
chain: TSSSTKKTQLQLEHLLLDLQMILNGINNYKNPKLTRMLTFKFYMPKKATELKHLQCLEEELKPLEEVLNLAQSKNFHVPPEDLIANINVLVLELKGSETTFMCEYADETATIVEFLNRWITFCQSIISTLT
notes: No K35E on the phage
[3]
  binding result: binds

B14: recombinant fusion protein comprising human IL-2R beta subunit extracellular domain and mouse IgG2a Fc (Fc fusion)
chain: T1 sequence (looked up)
[4]
  Kd: 0.8 nM
IL-2(K35E)/Fc [5]
  Kd: 106 nM
[6]
  Kd: 0.37 nM
[7]
  Kd: 0.54 nM
[8]
  Kd: 0.29 nM
H9(K35E)/Fc [9]
  Kd: 4.09 nM
[10]
  Kd: 1.12 nM
[11]
  koff: 0.000298 s⁻¹
IL-2(K35E)/Fc [12]
  koff: 0.00308 s⁻¹
[13]
  koff: 0.00113 s⁻¹
[14]
  koff: 0.000251 s⁻¹
H9(K35E)/Fc [15]
  koff: 0.000218 s⁻¹
[16]
  koff: 0.000349 s⁻¹
IL-2(K35E)/Fc [17]
  koff: 0.00326 s⁻¹
[18]
  koff: 0.000304 s⁻¹
[19]
  koff: 0.000461 s⁻¹
[20]
  koff: 0.000273 s⁻¹
H9(K35E)/Fc [21]
  koff: 0.000395 s⁻¹
[22]
  koff: 0.000266 s⁻¹
[23]
  Kd: 3.35 nM
IL-2(K35E)/Fc [24]
  Kd: 103 nM
[25]
  Kd: 36.5 nM
[26]
  Kd: 3.84 nM
H9(K35E)/Fc [27]
  Kd: 4.47 nM
